Reference: article PMC4417048 (Nature cell biology, 2015)

T1: Syndetin (endogenous, human cells) (human (endogenous in H4 and HeLa), UniProt Q96JG6-1 1-964)
T1 sequence: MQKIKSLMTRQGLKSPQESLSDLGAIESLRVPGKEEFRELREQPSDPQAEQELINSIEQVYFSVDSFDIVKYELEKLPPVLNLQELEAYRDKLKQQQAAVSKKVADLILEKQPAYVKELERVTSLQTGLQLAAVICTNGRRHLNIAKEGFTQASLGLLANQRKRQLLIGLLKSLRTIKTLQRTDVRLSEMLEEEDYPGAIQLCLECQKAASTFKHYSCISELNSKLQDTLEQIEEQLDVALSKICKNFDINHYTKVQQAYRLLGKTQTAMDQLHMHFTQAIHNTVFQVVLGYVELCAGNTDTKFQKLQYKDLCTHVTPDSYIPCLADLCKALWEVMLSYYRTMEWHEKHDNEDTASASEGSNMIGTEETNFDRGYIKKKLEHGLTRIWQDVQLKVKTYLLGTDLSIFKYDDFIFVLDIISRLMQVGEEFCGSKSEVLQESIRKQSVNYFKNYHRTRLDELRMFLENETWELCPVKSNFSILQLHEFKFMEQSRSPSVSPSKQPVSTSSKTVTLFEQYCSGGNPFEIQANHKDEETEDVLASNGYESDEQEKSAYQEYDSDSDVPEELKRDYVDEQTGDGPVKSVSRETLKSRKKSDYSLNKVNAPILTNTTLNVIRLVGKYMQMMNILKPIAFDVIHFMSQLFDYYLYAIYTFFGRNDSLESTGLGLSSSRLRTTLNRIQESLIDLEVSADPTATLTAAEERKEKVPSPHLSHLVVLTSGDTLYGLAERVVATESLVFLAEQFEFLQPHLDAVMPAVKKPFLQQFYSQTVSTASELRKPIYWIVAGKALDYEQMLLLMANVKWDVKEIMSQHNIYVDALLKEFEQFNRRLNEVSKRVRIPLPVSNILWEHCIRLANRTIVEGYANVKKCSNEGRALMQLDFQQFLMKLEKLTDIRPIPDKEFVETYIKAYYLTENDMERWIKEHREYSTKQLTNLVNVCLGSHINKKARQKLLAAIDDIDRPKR

B1: Ang2 (endogenous, human cells) (natural protein)
chain: MAAAAAAGPSPGSGPGDSPEGPEGEAPERRRKAHGMLKLYYGLSEGEAAGRPAGPDPLDPTDLNGAHFDPEVYLDKLRRECPLAQLMDSETDMVRQIRALDSDMQTLVYENYNKFISATDTIRKMKNDFRKMEDEMDRLATNMAVITDFSARISATLQDRHERITKLAGVHALLRKLQFLFELPSRLTKCVELGAYGQAVRYQGRAQAVLQQYQHLPSFRAIQDDCQVITARLAQQLRQRFREGGSGAPEQAECVELLLALGEPAEELCEEFLAHARGRLEKELRNLEAELGPSPPAPDVLEFTDHGGSGFVGGLCQVAAAYQELFAAQGPAGAEKLAAFARQLGSRYFALVERRLAQEQGGGDNSLLVRALDRFHRRLRAPGALLAAAGLADAATEIVERVARERLGHHLQGLRAAFLGCLTDVRQALAAPRVAGKEGPGLAELLANVASSILSHIKASLAAVHLFTAKEVSFSNKPYFRGEFCSQGVREGLIVGFVHSMCQTAQSFCDSPGEKGGATPPALLLLLSRLCLDYETATISYILTLTDEQFLVQDQFPVTPVSTLCAEARETARRLLTHYVKVQGLVISQMLRKSVETRDWLSTLEPRNVRAVMKRVVEDTTAIDVQVGLLYEEGVRKAQSSDSSKRTFSVYSSSRQQGRYAPSYTPSAPMDTNLLSNIQKLFSERIDVFSPVEFNKVSVLTGIIKISLKTLLECVRLRTFGRFGLQQVQVDCHFLQLYLWRFVADEELVHLLLDEVVASAALRCPDPVPMEPSVVEVICERG
B2: Vps52 (endogenous, human cells) (natural protein)
chain: MAAAATMAAAARELVLRAGTSDMEEEEGPLAGGPGLQEPLQLGELDITSDEFILDEVDVHIQANLEDELVKEALKTGVDLRHYSKQVELELQQIEQKSIRDYIQESENIASLHNQITACDAVLERMEQMLGAFQSDLSSISSEIRTLQEQSGAMNIRLRNRQAVRGKLGELVDGLVVPSALVTAILEAPVTEPRFLEQLQELDAKAAAVREQEARGTAACADVRGVLDRLRVKAVTKIREFILQKIYSFRKPMTNYQIPQTALLKYRFFYQFLLGNERATAKEIRDEYVETLSKIYLSYYRSYLGRLMKVQYEEVAEKDDLMGVEDTAKKGFFSKPSLRSRNTIFTLGTRGSVISPTELEAPILVPHTAQRGEQRYPFEALFRSQHYALLDNSCREYLFICEFFVVSGPAAHDLFHAVMGRTLSMTLKHLDSYLADCYDAIAVFLCIHIVLRFRNIAAKRDVPALDRYWEQVLALLWPRFELILEMNVQSVRSTDPQRLGGLDTRPHYITRRYAEFSSALVSINQTIPNERTMQLLGQLQVEVENFVLRVAAEFSSRKEQLVFLINNYDMMLGVLMERAADDSKEVESFQQLLNARTQEFIEELLSPPFGGLVAFVKEAEALIERGQAERLRGEEARVTQLIRGFGSSWKSSVESLSQDVMRSFTNFRNGTSIIQGALTQLIQLYHRFHRVLSQPQLRALPARAELINIHHLMVELKKHKPNF

How the values were obtained:
[1] = biological target: Syndetin (endogenous, human cells) (human (endogenous in H4 and HeLa)) (UniProt Q96JG6); experiment: sedimentation velocity on glycerol gradients + SEC
[2] = biological target: T1, Syndetin (endogenous, human cells); experiment: sedimentation velocity on glycerol gradients + SEC

Molecule | stoichiometry N [1] | stoichiometry N [2]
Vps53 (endogenous, human cells) (from UniProt Q5VIR6 1-832) (natural protein) | 1 | –
B1 | – | 1
B2 | – | 1
